2 molecules from patent US20250295772A1 (ABATA THERAPEUTICS, published 2025) can be followed below.

This experiment deals with T1, preproinsulin 73-90 peptide complexed with HLA-DRB1*04:01 (human, UniProt P01903 26-254; P01911 30-266).
T1 MHC II alpha: not shown
T1 MHC II beta: not shown
T1 peptide: GAGSLQPLALEGSLQKRG
As to the kind of experiment: cell-based or functional assay.

B1: TCR-Q (TCR, V domains shown)
V domain 1: KDQVFQPSTVASSEGAVVEIFCNHSVSNAYNFFWYLHFPGCAPRLLVKGSKPSQQGRYNMTYERFSSSLLILQVREADAAVYYCAVGDTGGFKTIFGAGTRLFVKA
V domain 2: DSGVTQTPKHLITATGQRVTLRCSPRSGDLSVYWYQQSLDQGLQFLIHYYNGEERAKGNILERFSAQQFPDLHSELNLSSLELGDSALYFCASSEIAGFSTDTQYFGPGTRLTVLE
Take B1: the “EC50 (nM) of CD69 upregulation, conventional CD4+ T cells + BLS-DRB1*04:01 cells, peptide titrated” value is 409 nM.

B2: TCR-S DS (TCR, V domains shown)
V domain 1: QKEVEQDPGPLSVPEGAIVSLNCTYSNSAFQYFMWYRQYSRKGPELLMYTYSSGNKEDGRFTAQVDKSSKYISLFIRDSQPSDSATYLCAMSEYSGYALNFGKGTSLLVTP
V domain 2: GITQSPKYLFRKEGQNVTLSCEQNLNHDAMYWYRQDPGQGLRLIYYSQIVNDFQKGDIAEGYSVSREKKESFPLTVTSAQKNPTAFYLCASSNRDEQYFGPGTRLTVTE
With B2, the “EC50 (nM) of CD69 upregulation, conventional CD4+ T cells + BLS-DRB1*04:01 cells, peptide titrated” value amounted to 10000 nM.
